± gives the uncertainty stated by the source.
Assay: self-splicing fitness, log relative to wild type (ln ratio); higher = more splicing; Tetrahymena group I intron in knt gene, E. coli kanamycin selection, DiMSum; sequences stand for … in CUCUCU…GGAGGGAAAAGUUAUCAGGCAUGCACCUGGUAGCUAGUCUUUAAACCAAUAGAUUGCAUCGGUUUAAAAGGCAAGACCGUCAAAUUGCGGGAAAGGGGUCAACAGCCGUUCAGUACCAAGUCUCAGGGGAAACUUUGAGAUGGCCUUGCAAAGGGUAUGGUAAUAAGCUGACGGACAUGGUCCUAACCACGCAGCCAAGUCCUAAGUCAACAGAUCUUCUGUUGAUAUGGAUGCAGUUCACAGACUAAAUGUCGGUCGGGGAAGAUGUAUUCUUCUCAUAAGAUAUAGUCGGACCUCUCCUUAAUGGGAGCUAGCGGAUGAAGUGAUGCAACACUGGAGCCGCUGGGAACUAAUUUGUAUGCGAAAGUAUAUUGAUUAGUUUUGGAGUACUCGUGGUCG
Method in brief: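 Pooled colonies went to amplicon sequencing on an Illumina HiSeq 2500 after six replicate transformations. The plates were LB agar with 100 μg/mL carbenicillin, 50 μM IPTG and 0.2% rhamnose, with or without 25 μg/mL kanamycin, incubated overnight at 37°C or 30°C. The E. coli BL21(DE3) library had all eight P1ex-region intron nucleotides randomised, the intron placed in the knt kanamycin-resistance gene on pET-22b(+). DiMSum fitness is the error-weighted combination of replicate fold changes, kanamycin against none, normalised to wild type.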

Sequence	self-splicing fitness (ln) (30 °C)	self-splicing fitness (ln) (37 °C)
CUCGAGCAAUAUUACGCAUC	-3.3 ± 0.22	-2.49 ± 0.3
CAGUAGCAAUAUUACGUUGU	-4.7 ± 0.28	-3.14 ± 0.24
AAUUAGCAAUAUUACGAUUC	-2.85 ± 0.24	-1.13 ± 0.34
GACUAGCAAUAUUACGUGCG	-1.3 ± 0.073	-0.236 ± 0.091
AGAUAGCAAUAUUACGGGUU	-2.78 ± 0.2	-2.29 ± 0.25
GCACAGCAAUAUUACGUAGA	-0.215 ± 0.049	0.62 ± 0.066
GCGUAGCAAUAUUACGUUUU	-3.15 ± 0.14	-1.8 ± 0.13
GUCCAGCAAUAUUACGCAGC	-0.998 ± 0.17	0.198 ± 0.14
CCCCAGCAAUAUUACGGAAU	-3.31 ± 0.13	-2.4 ± 0.2
CAUAAGCAAUAUUACGCUAC		-1.79 ± 0.21
AGGAAGCAAUAUUACGCGGG	-1.85 ± 0.18	-1.67 ± 0.14
CCAGAGCAAUAUUACGCCCU	-2.65 ± 0.48	-2.07 ± 0.36
GAAGAGCAAUAUUACGCUUG	-2.25 ± 0.13	-1.3 ± 0.14
UAAGAGCAAUAUUACGUCCC	-3.99 ± 0.42	
UUUUAGCAAUAUUACGCAUU	-2.39 ± 0.11	-1.27 ± 0.15
UUUUAGCAAUAUUACGUAUU	-3.2 ± 0.35	-1.04 ± 0.38
AUUUAGCAAUAUUACGCUAA	-2.13 ± 0.23	-1.3 ± 0.31
AUCCAGCAAUAUUACGCGAU	-1.86 ± 0.15	-2.42 ± 0.25
CGCAAGCAAUAUUACGGGCA	0.0951 ± 0.064	-0.199 ± 0.075
AGGGAGCAAUAUUACGUUAU	-3.84 ± 0.34	-2.94 ± 0.25
UCAGAGCAAUAUUACGCAGG		0.137 ± 0.42
GCUAAGCAAUAUUACGUUUA	-2.9 ± 0.24	-1.69 ± 0.21
GACUAGCAAUAUUACGACGG	-2.2 ± 0.24	-1.78 ± 0.35
CGGAAGCAAUAUUACGUUAA	-3.47 ± 0.36	-3.06 ± 0.25
UAUAAGCAAUAUUACGCUGG	-1.44 ± 0.13	-0.93 ± 0.18

Sequence	self-splicing fitness (ln) (30 °C)	self-splicing fitness (ln) (37 °C)
GUGAAGCAAUAUUACGCCAG	-1.09 ± 0.2	-1.1 ± 0.22
CCCUAGCAAUAUUACGUCUG	-2.99 ± 0.18	-3.17 ± 0.22
GCACAGCAAUAUUACGUUAG	-2.6 ± 0.091	-1.85 ± 0.11
CAAGAGCAAUAUUACGGCGU	-3.47 ± 0.34	-1.92 ± 0.21
AUCUAGCAAUAUUACGUAGG	-1.96 ± 0.14	-0.273 ± 0.21
CGGCAGCAAUAUUACGAAGG	-1.13 ± 0.12	0.373 ± 0.17
AUCCAGCAAUAUUACGUAAU	-0.922 ± 0.072	-0.492 ± 0.079
GAACAGCAAUAUUACGCUCU	-1.37 ± 0.17	-0.466 ± 0.15
CCAAAGCAAUAUUACGCAUG	-1.22 ± 0.063	-0.772 ± 0.084
CAACAGCAAUAUUACGCUGA	-3.74 ± 0.2	-3.02 ± 0.2
ACAUAGCAAUAUUACGACCA	-0.589 ± 0.12	0.121 ± 0.14
AAGGAGCAAUAUUACGCCUA	-1.21 ± 0.15	-1.35 ± 0.14
ACGAAGCAAUAUUACGAGAC	-2.39 ± 0.38	
CUCCAGCAAUAUUACGGGUG	-2.79 ± 0.097	-1.53 ± 0.088
CACCAGCAAUAUUACGGGCG	-1.81 ± 0.053	-0.295 ± 0.065
AUACAGCAAUAUUACGUAUU	-3.18 ± 0.16	-2.54 ± 0.2
AGUUAGCAAUAUUACGGCUG	-0.983 ± 0.085	-0.309 ± 0.11
GCGCAGCAAUAUUACGCGUU	-2.99 ± 0.14	-2.06 ± 0.15
CAUCAGCAAUAUUACGGACG	-0.594 ± 0.053	-0.172 ± 0.08
AAGGAGCAAUAUUACGGGGC	-3.81 ± 0.22	-2.34 ± 0.16
AACAAGCAAUAUUACGAGCC	-3.25 ± 0.47	-2.09 ± 0.36
GUUCAGCAAUAUUACGUCUG	-2.67 ± 0.085	-1.54 ± 0.072
AUGCAGCAAUAUUACGAUCU	-0.511 ± 0.084	0.285 ± 0.13
CGCUAGCAAUAUUACGAAUU	-2.77 ± 0.16	-2.58 ± 0.28

Reference: the supplement of paper PMC7877785
